Here are results for eight sequences from the supplement of paper PMC11246515.

This data set in a line: total protein half-life in vivo (active degradation + dilution); higher = more stable protein.
The mark [1] stands for this setting: wild type E. coli NCM3722, growth: C-lim chemostat, doubling time 3 h.
The mark [2] stands for this setting: wild type E. coli NCM3722, growth: C-lim chemostat, doubling time 6 h.
The mark [3] stands for this setting: wild type E. coli NCM3722, growth: C-lim chemostat, doubling time 12 h.
The mark [4] stands for this setting: wild type E. coli NCM3722, growth: P-lim chemostat, doubling time 12 h.
Setting [5] is: E. coli NCM3722 delta-clpP delta-lon delta-hslV, growth: N-lim chemostat, doubling time 6 h.
The mark [6] stands for this setting: E. coli NCM3722 delta-clpP, growth: N-lim chemostat, doubling time 6 h.
[7] abbreviates: E. coli NCM3722 delta-hslV, growth: N-lim chemostat, doubling time 6 h.
[8] abbreviates: E. coli NCM3722 delta-lon, growth: N-lim chemostat, doubling time 6 h.
[9] abbreviates: E. coli NCM3722 delta-smpB, growth: N-lim chemostat, doubling time 6 h.
Where [10] appears, read: wild type E. coli NCM3722, growth: N-lim chemostat, doubling time 6 h.
[11] abbreviates: wild type E. coli NCM3722, growth: N-lim chemostat, doubling time 12 h.
Where [12] appears, read: wild type E. coli NCM3722, growth: P-lim chemostat, doubling time 6 h.

± gives the standard deviation of the averaged measurements. Some results are limits rather than exact numbers.

On to “MTPVKVWQERVEIPTYETGPQDIHPMFLENRVYQGSSGAVYPYGVTDTLSEQKTLKSWQAVWLENDYIKVMILPELGGRVHRAWDKVKQRDFVYHNEVIKPALVGLLGPWISGGIEFNWPQHHRPTTFMPVDFTLEAHEDGAQTVWVGETEPMHGLQVMTGFTLRPDRAALEIASRVYNGNATPRHFLWWANPAVKGGEGHQSVFPPDVTAVFDHGKRAVSAFPIATGTYYKVDYSAGVDISRYKNVPVPTSYMAEKSQYDFVGAWCHDEDGGLLHVANHHIAPGKKQWSWGHSEFGQAWDKSLTDNNGPYIELMTGIFADNQPDFTWLDAYEEKRFEQYFLPYHSLGMVQNASRDAVIKLQRSKRGIEWGLYAISPLNGYRLAIREIGKCNALLDDAVALMPATAIQGVLHGINPERLTIELSDADGNIVLSYQEHQPQALPLPDVAKAPLAAQDITSTDEAWFIGQHLEQYHHASRSPFDYYLRGVALDPLDYRCNLALAMLEYNRADFPQAVAYATQALKRAHALNKNPQCGQASLIRASAYERQGQYQQAEEDFWRAVWSGNSKAGGYYGLARLAARNGNFDAGLDFCQQSLRACPTNQEVLCLHNLLLVLSGRQDNARVQREKLLRDYPLNATLWWLNWFDGRSESALAQWRGLCQGRDVNALMTAGQLINWGMPTLAAEMLNALDCQRTLPLYLQASLLPKAERGELVAKAIDVFPQFVRFPNTLEEVAALESIEECWFARHLLACFYYNKRSYNKAIAFWQRCVEMSPEFADGWRGLAIHAWNKQHDYELAARYLDNAYQLAPQDARLLFERDLLDKLSGATPEKRLARLENNLEIALKRDDMTAELLNLWHLTGQADKAADILATRKFHPWEGGEGKVTSQFILNQLLRAWQHLDARQPQQACELLHAALHYPENLSEGRLPGQTDNDIWFWQAICANAQGDETEATRCLRLAATGDRTINIHSYYNDQPVDYLFWQGMALRLLGEQQTAQQLFSEMKQWAQEMAKTSIEADFFAVSQPDLLSLYGDLQQQHKEKCLMVAMLASAGLGEVAQYESARAELTAINPAWPKAALFTTVMPFIFNRVH”, for which the “total protein half-life in vivo” value stood at 3.06 ± 0.34 h under setting [1], 4.96 ± 0.015 h under setting [2], 8.56 ± 1.8 h under setting [3] and 7.32 h under setting [4].
“MKCPVCHQGEMVSGIKDIPYTFRGRKTVLKGIHGLYCVHCEESIMNKEESDAFMAQVKAFRASVNAETVAPEFIVKVRKKLSLTQKEASEIFGGGVNAFSRYEKGNAQPHPSTIKLLRVLDKHPELLNEIR”: the “total protein half-life in vivo” value by setting is: under setting [5], 4.78 ± 0.28 h; under setting [6], 1.229 ± 0.0039 h; under setting [7], 1.01 h; under setting [8], 3.01 ± 0.085 h; under setting [9], 0.847 ± 0.046 h; under setting [1], 0.559 ± 0.062 h. Moreover, the “total protein half-life in vivo” value by setting is: under setting [2], 1.07 ± 0.12 h; under setting [3], 1.23 h; under setting [10], 0.993 h; under setting [11], 1.08 h; under setting [12], 1.13 h; under setting [4], 1.6 ± 0.84 h.
Take “MKTYQGTHGVHILEYQSKINKLLCYLTNRYPRLIAVRVDLHYPKIVDNGDNICCFPNLEPGVISRMRESLRAKLEADRTRKVREDKRIYRCPLFIIWAKEYSESGKCHYHICLLFNKDAYYHLGDYDQDDNLRGMITGAWYSALRLERDDHPGLVHFPENCKYVLDTNSTDFQQNYQALLTRLDYLTKVESKVFGEGDRNFGCSQIEL”: under setting [3], the “total protein half-life in vivo” value is more than 16 h.
On to “MSILYEERLDGALPDVDRTSVLMALREHVPGLEILHTDEEIIPYECDGLSAYRTRPLLVVLPKQMEQVTAILAVCHRLRVPVVTRGAGTGLSGGALPLEKGVLLVMARFKEILDINPVGRRARVQPGVRNLAISQAVAPHNLYYAPDPSSQIACSIGGNVAENAGGVHCLKYGLTVHNLLKIEVQTLDGEALTLGSDALDSPGFDLLALFTGSEGMLGVTTEVTVKLLPKPPVARVLLASFDSVEKAGLAVGDIIANGIIPGGLEMMDNLSIRAAEDFIHAGYPVDAEAILLCELDGVESDVQEDCERVNDILLKAGATDVRLAQDEAERVRFWAGRKNAFPAVGRISPDYYCMDGTIPRRALPGVLEGIARLSQQYDLRVANVFHAGDGNMHPLILFDANEPGEFARAEELGGKILELCVEVGGSISGEHGIGREKINQMCAQFNSDEITTFHAVKAAFDPDGLLNPGKNIPTLHRCAEFGAMHVHHGHLPFPELERF [P0AEP9]”, for which the “total protein half-life in vivo” value under setting [1] turned out to be 1.69 ± 0.022 h; the “total protein half-life in vivo” value under setting [2] came to 3.62 ± 0.18 h; the “total protein half-life in vivo” value under setting [3] amounted to 5.4 ± 0.53 h; the “total protein half-life in vivo” value under setting [12] was 2.38 ± 0.24 h; the “total protein half-life in vivo” value under setting [4] stood at 5.7 ± 3.1 h.
Regarding “MKKIACLSALAAVLAFTAGTSVAATSTVTGGYAQSDAQGQMNKMGGFNLKYRYEEDNSPLGVIGSFTYTEKSRTASSGDYNKNQYYGITAGPAYRINDWASIYGVVGVGYGKFQTTEYPTYKHDTSDYGFSYGAGLQFNPMENVALDFSYEQSRIRSVDVGTWIAGVGYRF [P0A917]”, the “total protein half-life in vivo” value under setting [5] is 7.26 ± 0.62 h; the “total protein half-life in vivo” value under setting [6] was 6.37 ± 0.47 h; the “total protein half-life in vivo” value under setting [7] amounted to 6.51 ± 0.36 h; the “total protein half-life in vivo” value under setting [8] was found to be 6.76 ± 0.59 h; the “total protein half-life in vivo” value under setting [9] was 5.81 ± 0.095 h; the “total protein half-life in vivo” value under setting [1] was found to be 3.09 ± 0.13 h. Further, the “total protein half-life in vivo” value was determined as 6.04 ± 0.27 h under setting [2]; 14.4 ± 0.89 h under setting [3]; 6.09 ± 0.073 h under setting [10]; 12.9 ± 1.1 h under setting [11]; 6.15 ± 0.19 h under setting [12]; 12.9 ± 0.62 h under setting [4].
For “MSNKPFHYQAPFPLKKDDTEYYLLTSEHVSVSEFEGQEILKVAPEALTLLARQAFHDASFMLRPAHQQQVADILRDPEASENDKYVALQFLRNSDIAAKGVLPTCQDTGTAIIVGKKGQRVWTGGGDEAALARGVYNTYIEDNLRYSQNAPLDMYKEVNTGTNLPAQIDLYAVDGDEYKFLCIAKGGGSANKTYLYQETKALLTPGKLKNYLVEKMRTLGTAACPPYHIAFVIGGTSAETNLKTVKLASAKYYDELPTEGNEHGQAFRDVELEKELLIEAQNLGLGAQFGGKYFAHDIRVIRLPRHGASCPVGMGVSCSADRNIKAKINRQGIWIEKLEHNPGKYIPEELRKAGEGEAVRVDLNRPMKEILAQLSQYPVSTRLSLNGTIIVGRDIAHAKLKERMDNGEGLPQYIKDHPIYYAGPAKTPEGYASGSLGPTTAGRMDSYVDQLQAQGGSMIMLAKGNRSQQVTDACKKHGGFYLGSIGGPAAVLAQGSIKSLECVEYPELGMEAIWKIEVEDFPAFILVDDKGNDFFQQIQLTQCTRCVK [P0AC33]”, the “total protein half-life in vivo” value is, setting by setting: under setting [5], 4.02 ± 1.1 h; under setting [6], 2.82 ± 0.17 h; under setting [7], 2.53 ± 0.47 h; under setting [8], 2.86 ± 0.043 h; under setting [9], 2.36 ± 0.071 h; under setting [1], 3.13 ± 0.2 h. Besides, the “total protein half-life in vivo” value turned out to be 4.39 ± 0.14 h under setting [2]; 7.67 ± 1.4 h under setting [3]; 2.51 ± 0.22 h under setting [10]; 3.37 ± 0.11 h under setting [11]; 5.02 ± 0.12 h under setting [12]; 8.932 ± 0.051 h under setting [4].
“MTNTWNRLALLIFAVLSLLVAGELQAGVVVGGTRFIFPADRESISILLTNTSQESWLINSKINRPTRWAGGEASTVPAPLLAAPPLILLKPGTTGTLRLLRTESDILPVDRETLFELSIASVPSGKVENQSVKVAMRSVFKLFWRPEGLPGDPLEAYQQLRWTRNSQGVQLTNPTPYYINLIQVSVNGKALSNVGVVPPKSQRQTSWCQAIAPCHVAWRAINDYGGLSAKKEQNLP”: the “total protein half-life in vivo” value reads like this: under setting [1], 2.87 h; under setting [11], 3.48 h.
With “MKTSVRIGAFEIDDGELHGESPGDRTLTIPCKSDPDLCMQLDAWDAETSIPALLNGEHSVLYRTRYDQQSDAWIMRLA”, the “total protein half-life in vivo” value runs as follows: under setting [5], 2.16 ± 0.13 h; under setting [6], 1.58 h; under setting [7], 0.651 h; under setting [8], 1.83 ± 1.1 h; under setting [9], 0.479 ± 0.045 h; under setting [1], 1.04 ± 0.18 h. Further, the “total protein half-life in vivo” value under setting [2] was determined as 1.846 ± 0.018 h; the “total protein half-life in vivo” value under setting [3] was determined as 2.06 h; the “total protein half-life in vivo” value under setting [10] was determined as 0.85 h; the “total protein half-life in vivo” value under setting [11] was found to be 0.89 h; the “total protein half-life in vivo” value under setting [12] amounted to 0.882 ± 0.16 h; the “total protein half-life in vivo” value under setting [4] turned out to be 1.16 h.
